{"source": "paper PMC11435769", "about": "“Entrapment of Cyanase from Thermomyces lanuginosus Using Biomimetic Silica and Its Application for Cyanate Bioremediation” (Polymers, 2024)", "tested_on": "N#CO", "test": "purified protein", "type": "biochemical, Thermomyces lanuginosus", "conditions": "free enzyme, standard assay: co-substrate bicarbonate (0.2 mL of 15 mM NaHCO3 in 1 mL), 50 mM Tris-HCl pH 8, 60 °C"}
{"substance": "TlCyn (Thermomyces lanuginosus)", "values": [{"measurement": "Km", "result": 440, "unit": "µM"}, {"measurement": "kcat", "result": 18400, "unit": "s⁻¹"}, {"measurement": "kcat/Km", "result": "4.19e+07", "unit": "M⁻¹ s⁻¹"}]}
